# Test: soluble fraction after stress (log2 fold change); higher = more stays soluble; pooled small domains, quantitative proteomics
# Conditions: stress: 75 degC
# 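Also: 20 min heating vs room temperature control held 20 min.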
row,Sequence,soluble fraction (log2)
1,HMLKTADAIASVLLTRIQAGEFSAGRLPAERALSEAFSTTRITLREALGKLEAQGMIYRELRRGWFIA,-1.85
2,HMLLFNPGEVLKGFVLQSGTNNRVLLQIGDSRVIADTQTPLKAGEQLVLRVEETGPKTILQILG,0.177
3,HMLLGDYIQKLRNQRGLSQQEFADKLGIGRSTLANYEQNKRSPDYETLIEISKFFNVSIDELLGV,-1.05
4,HMLLLASTPAEQTIIQLLAEGWRDGDQLQQRSHLSAADFSTALTMLEVNGSIKPLGANHWALTH,-1.26
5,HMLLPANLTKSQRNIAERVARGQSNLEIAADLNITERTVKAHLTSIYEKTKTGNRLNLALLINLG,-0.289
6,HMLLPGEELRVMIIQEGKEYGQGVGYLDDGTMVVVEDGQRALNRTENVVVTKVLQTTAGRMIFAK,-0.71
7,HMLLQENRKLHSKLEELQLISRAKAVLIEYLKLTEPQAHRYIEKQAMDLGLTRPQVALNILKTYE,-1.38
8,HMLLQTAVISTDIVNMRAEPTTNSSVIRKLTKGSDITINQEKDGWYKISDDQGNSGWIVTWAAKPT,-0.208
9,HMLMDVRVPDIIGVEINQAKEILTASSLLIGKITYVSLPEIEKDLVIETSVLAGRRVSAGTVIDITVNKE,-2.09
10,HMLMKPQKTRDVLRYLKSIGWVRLRGGQGSHEIWGLPDGSIRAVIPAGHREISAGVLMQLKRAGVDVPTQW,-1.25
11,HMLMLTPGQIAQTLDVSTATVRRWSARYARHLSPNTPGKKRSYTVDDLAVLTRVRDLSATGTPLAQIDQAL,-2.11
12,HMLMLTPGQVSNSLNVSTATVRRWSARFARHLSPQPPNRKRSYTPDDLATLARVRDLSASGTSLAQIDIAL,-2.59
13,HMLMRSPDFLIGWFQNLVAKRETFNDQVQAKNLIEAGKQHIQGEDFDRLLEVNRRLFSLLPQREQE,0.177
14,HMLNAPFGFRIEDDTLIPIPEEAKVVRQIFRYYLQGMGFGKIAQELNGQDVPGKPWGKERIKYILSNEKYI,-2.47
15,HMLNERQKKIIKILKDNKNWMTGKELSEFLNVSDRTIRSDIEYINRYNNALIESNVKNGYHLNFE,-0.233
16,HMLNIVTIFEEQFGRPLSPIELNIIKDWKESDYSDEMIVKALKEAVKSQVLNFRYVEGILNNWAKNG,-0.783
17,HMLNLNEAEKSIYVLIKKNESNNLNKVKEDSNLSNKAWDKGIKNLVKNNLVKVVKSNEGLFIQLV,-0.636
18,HMLNLNILTDKEKFIAKLISRGLSDSLIAKELYISISTVRSHVNSIYGKTNIKNRSHLASSFLYFELGNLL,-0.204
19,HMLNPMILLTKGGENIRLDKFLSSHLSDLSRTQIQKMVKEGLVLVNGEPSKVGLKLDGSETIQYTLPK,-0.18
20,HMLNSISIKTNKKIDFLEKNEHLVNFVYEKETMEHIYNLSYENKKDLQELQNKLSDIEGIIKINTDL,0.651
21,HMLPDVSITGHIFIRSGSRLNRIFVGESTYHVGDMLDGKWLIESINSDSLELRSGTQTTELPL,-2.83
22,HMLPDYLIELKKKADSGDAVSQNDIGNIYLYGLPRVNIYPDEKNIGIGIDYLYKAAWQDQVNAMTTI,-0.098
23,HMLPELQPGQTFSARIQQALPDNTYRALVAGKQLTLQLPEGAKAGDELELVVLDRSARVIIARQVD,-0.691
24,HMLPGERFKVKIAQAGKEKKQGIGYLNDGTMVVIENGIEKVGEEVEAVVIKVIQSSAGKIIFSEVAK,0.0862
25,HMLPGKEIPLPEFLREAFARNEPALENFQNLAPSYRRQYILWITSAKTPETVQKRISESIGLLKENRKLGM,-0.616
26,HMLPGLGPIERAQFMLQAIPGISPTRSAALIDKFGSIAGIAQASIKDIQTIEGIGKKTATTLYEVLNAG,-0.39

row,Sequence,soluble fraction (log2)
1,HMLPISGDDRDALDMAALILKQYDSLPILKEFANVVTKLQTVLDGVVSNSIEARRQMIQFEE,0.0649
2,HMLPITPGQKYKFVVKSAEEAAAIIRDKLGEMAQVISVRQVEGEGLARFLKSPKLEIIAQVPVA,-0.35
3,HMLPLGSNEYETAVIKHLASGVQDADEIQRLTGIDQTSLNTALTMLELAGTIRPLGNNHWTL,0.459
4,HMLPLHFIEIVSLKKIDTLTKRKELINYAFSKNEKTYIYKLAFKKKSELDNLYKEINLFNEIINIDIRHS,-0.577
5,HMLPLPRFASLDSSEANLRAGPGKDYPILWVYQRKGLPVEIIQEFDTWRRIRDRDGTVGWVQQNLL,-0.351
6,HMLPNIKSEMEILGDNAKARLEAAELWSKKYLSNEAYDTMSKLATTADGVKAIEEIMNITKS,0.0754
7,HMLPSELLAQQRIVVQPGHNLWRIARATYGRGARYTVIYQANREQIADPNRIFPGQVFALPAA,-0.102
8,HMLPSMENWLGELSFWQTPWWERRDFSTFDNIAQSKEELDEFMSRDDNGAILERMQDPINTIEAE,-0.285
9,HMLQGKVSFFNDEKGYGFIKDNNSKDSYFVHINKVEGEIAEGDKVTFELEKGPKGLVAANVKR,0.0967
10,HMLQIGDEEFIENIVKQVIDENQKAVDDYKKGKEKVMAFLIGQVMKKTKGKVNSEIVEKTIKKL,-0.211
11,HMLQKEVHQQIQQALRALPYHQRTAIVLYYYEGMSVKEIAQATGSMQGTVQSRLFFARKKLRPILESILKK,-1.15
12,HMLQQNRAVEAEQLARKGLSYAQSNIQQAALWRLVAEATEQQGKVDAALNAKNKAMQLEMAG,0.248
13,HMLRTLSTSEFAEAIGISESSARRLADSGDLRIRRTKGGHRKIPAEEAIRYAREIQATVVRPDLLGLST,-0.0139
14,HMLRVVSTRQAFDIVRGWADAHPQDPEHNKTLDELEELAKKEVWDDWSRTNEIAERLNALLVSIGANVRTA,-0.961
15,HMLSDEEKMAALNEQARQRGFTISPGVLPYLITHYQRDMHSLSMILDALDRYSLQTKRTITLPLLHDLLQQ,-1.04
16,HMLSKEFRFFTYLLESYAQHKNTTAGAVLKTLDEKGLTDFVYKMYDLYHVEAIENAYMDLDSLIATGKPA,-3.64
17,HMLSKGDRVSWDTPQGRTQGEVVEKKTKDFEHDGQKFTASDDDPAFIVKSEKSGAEAAHKGSALNK,-0.000228
18,HMLSLGIMEADMLKTGKHTISGISKATPEQRQKIDSDIEELKKKYPEKNITSKVENDNLIVESGVTAP,0.029
19,HMLSNKIEQLRKEKGYTFAKLSELSGISTGRLSDLATGKRNNPTMDTLIKLADALDVTLDELVGR,-0.26
20,HMLSNYIGMTLGEAKRNLGQGVNITVNGPNNDNAEVTGQDPTSGSSFDKSKDTITLTT,0.148
21,HMLSPAQSLLLRTAARRPDGRVIPPDTLRGGARVKVLTSLLQRGWIEPVDGGHVLTDAGYAAIG,-0.819
22,HMLSTNDYNENKNKLIKDFEIKFIIKHLKLNKGNVAATARSINFHPVSLRQKIAKLGIDVDEVMAG,-2.59
23,HMLSTQEYIKKNIENGSWKVGEKIPSENNLTEILGVSRASIRVAIQQFIALDVLNSIHGKGTFVKTNNIMG,0.112
24,HMLTALTDREEEILVLLAHNLSNKEIAKRLNLSVNTVRNHTSHIYEKLNVTSRRKAITLAQSLHLLPP,-1.48
25,HMLTAPMPGIVRQVNVDTGQKVRKGQPLMVLEAMKMEHQIIAPQAGKIEAIHYNEGDRVEMGSVLISIF,-1.17
26,HMLTAPMPGIVTEILVKEGQRVRSGQPLMILEAMKMEHQVTAPKSGQIEKIYFSEGEKVDMGSDLLSIS,0.5

row,Sequence,soluble fraction (log2)
1,HMLTEEVEISLMDMTKPTQPATIKTTATIQKGATTVMPKQIKMPEGYEFYGNYKMDQPFELTMTFVVKKI,-1.17
2,HMLTGESDNVEKSINKLGTENLALADQTNMGFKGTFINSGHGMAIVVKTGMQTELGKIASMIQIA,0.218
3,HMLTGISALKPTEAFPDEIFYEIFEIEDNIERTQYIESLRNTARQLKRVTEFNNLYKSFVLDYAQRQKQ,-1.93
4,HMLTKAEEQVMDYLWKLEKAFVKDILDEFPEPKPAYTTVSTMVRILEKKGMVGYTAYGKNHQYYPL,-1.97
5,HMLTKSELVFDTLKKRIIDGELEPGTELVISRISEEFNVSTIPVREAIKTLASEGLVEMEPHKSAKVAE,-0.0052
6,HMLTKSVLGNQIKVLRLEKGLSQEEFGAPVDLSRSAVSQIESGQMYPSLESIGKIVKYYSTSWDNLVG,-0.846
7,HMLTLDEKRRLQIMRVQVALTSLGLYNGRVDGVLNAETKLGLEFFQDLKGLPKSGTMTTPTLNALGVPA,-2.43
8,HMLTLSGPEHAVVRALWPEPELDFDVLIRKTGLPSAQLMTLAMQLEMKKIIRRLPGRRLALMDDIRR,-3.98
9,HMLTRSTVNVETGTAAIGLGKLYGVYDMSRKGLKYSFSVDSDAMTKVMEMLLPLGIKSLTVEPPS,-1.55
10,HMLTTADLMMVHANSNKAIDYIVTDDNTKLTVDEPVTAKWITTADSIYRAVAYYNKVGDGKAQIVSVGN,-0.0103
11,HMLTYPEHVRLRMIELRKTRSLSQSEFGTYLGLSYQTISSLELGRHEWSLAHIQTALLRFELPPNYF,-4.27
12,HMLVATFGPTTGWEGREIIWDVDRFILVGHGAVPAAGVLDYDRRGQLIWAQPELRAWVVEVDRWETG,-2.22
13,HMLVMTDNVIKAINDLLNYEAAAGIKKKQRYTAYQIYKELSEQGVYHGSRRRMEEVVSKLRVERNQI,-2.79
14,HMLVPWKSANLFKLVEPNFRLAERKIPMLPSADREKLQEIMSDMKDAIVDNDKMALMKLDEELTDFLFDFV,-1.49
15,HMLVSPLDEIPGIGRNRKKTLLNHFGSAKTIEGASLEDLKKVDGISELIAKKIYNYFHLNKNF,-0.85
16,HMLWTDTKYVTVPDFVGKEPKEIESSYLYNIEYHGEGTKVISQQPAAFSRTIEGGTVRLYLG,-0.0387
17,HMLYGRRFQVEGLNLERYLRAAADSGIPLKGARRFGRTLTGVAAEEHMAALEALARQGGWLFTPLEAVGAN,-0.948
18,HMLYKNIAKKLRFRINSDEFAIGDVLPTERQLMEEYQASRVSIRKAIDELVAIDLIEKKQGSGTYIKQKEV,-1.89
19,HMMESLGIRLKRLRKDKGLTQVELGKLSGVTGVTIGYWEKDLNEPGSKALSKLAQALGTTESYLLYGVS,-1.21
20,HMMNNKEIGTRIAVLRKGMGDSQAKLAERLDVSPQAVSKWETGQSLPDIGNLLKLSWLFRTSINHILEGS,-2.18
21,HMNADAPWSPFSPGFTGPMNRPVIGLVTKADLANPQRISLVESWLVQAGAQKVFVTSALENTGVDEMFIFL,-0.152
22,HMNADLDIQNVNGNTPLWEAVMRYRGDGFFIEQLLKNGANPDIKNNYGVSPKSLARTIANYDVRRFFN,-0.281
23,HMNADSLIGENIRISERVSNMDQTGMAVVHGQEWTVRTRNDNEIIEPGEEAKILAISGVKLIVEK,-0.136
24,HMNAESLIGDRAVVTVAIERNKRGRVDVTGQDWAATTRDGEEIKVGQEVLVVGISGVALIVEER,-1.1
25,HMNAIYKFVLGMIGKRSGVVTTLPSKKQVEFQANMLAEKFMQNGIDPNALKSPEQVKNVLANIDQ,-1.13

# Reference: the domain aggregation screens of Martell et al. (2025)
